Three molecules from patent US20240335555A1 (BIOHAVEN THERAPEUTICS, published 2024) can be followed below.

Assay [1] has as its target T1, SARS-CoV-2 (COVID-19) S Protein RBD, His Tag (SARS-CoV-2, UniProt P0DTC2 319-537). Kind of assay: BLI (Octet), LCB1 binding to anchored Spike RBD. (In general: In BLI a coated tip is dipped into the sample, and binding shifts an interference pattern.)
Assay [2] concerns the target T1, SARS-CoV-2 (COVID-19) S Protein RBD, …. In words: ELISA, Spike RBD anchored on plate. On the technique in general: In an ELISA, binding on a coated surface is turned into a signal by an enzyme label.
For assay [3], the target named is T2, SARS-CoV2 Spike-GFP protein on 293T cells (SARS-CoV-2, UniProt P0DTC2 14-1273).
T2 construct: whole, on cells
Kind of assay: flow cytometry on 293T cells expressing Spike-GFP, % gated read-out.

B1: I-24 (designed binder)
chain: DKEEILNKIYEIMRLLDELGNAEASMRVSDLILEFMKKGDERLLEEAERLLEEVERGGSEQKLISEEDLGSGGGGSLPETGGGGSGGSSHHHHHHHHHH
notes: also called P227; LCB1
As for B1, the binding result in assay [1] is recorded as “no binding”.

B2: I-27 (other)
peptide: NDDELLMLVTDLVAEALLFAKDEEIKKRVFTLFELADKAYKNNDRDTLSKVVSELKELLERLQSGGSEQKLISEEDLGSGGGGSLPET
notes: also called MATE agent I-27
A word on the EC50: it is the concentration that produces a half-maximal response. High values mean a less potent agent, low ones a more potent agent. In the case of B2, the midpoint of the response in assay [2], the EC50, lay at 4 nM.

B3: I-26 (other)
peptide: DKEEILNKIYEIMRLLDELGNAEASMRVSDLILEFMKKGDERLLEEAERLLEEVERGGSEQKLISEEDLGSGGGGSLPET
notes: also called MATE agent I-26
The term IC50 denotes the concentration needed to halve the response being measured. As to B3, the IC50 in assay [3] is 1.3 nM.
